Reference: the supplement of paper PMC11780869

Test system: Bacillus subtilis
Test: cleaved RNA product abundance (RNA/gDNA barcode ratio) relative to median wild-type variant (ratio to wild type); higher = more accumulation of the downstream cleavage product
Settings: cleavage site: cggR-gapA (positions -7 to +36 mutated)
Method in brief: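 Reporter mRNAs (truncated aprE or tetM) carrying barcoded, mutagenized RNase Y cleavage-site windows were made from oligos with a 9% error rate and integrated into the B. subtilis chromosome. Cultures grew in LB at 37°C from OD600 0.0003 to 0.3. Cleaved RNA was gel-selected, reverse transcribed and barcode-sequenced alongside genomic DNA barcodes, with UMI collapsing. Cleaved product abundance is the RNA:gDNA barcode ratio per variant, scaled to the median wild-type variant.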

[1] = experiment (reporter, strain, medium): exp 2b: truncated aprE reporter, strain BJT200
[2] = experiment (reporter, strain, medium): exp 4a: truncated aprE reporter, strain BJT201 with 2% xylose (RNase J1 expressed)
[3] = experiment (reporter, strain, medium): exp 6: tetM reporter, strain 168

Sequence	cleaved RNA product abundance [1]	cleaved RNA product abundance [2]	cleaved RNA product abundance [3]
ACAGACGAAGGAGCCGCAAAGAAGTTATTAAGGGATGAATAATCCCGCAATATAAATATCTCTCACTTATTTAAA	0.194	0.244	0.252
ACAGACGAAGGAGCCGCAAAGAAGTTATTAAGGGATGAATAATCCCGCAATATAGATATCTCTCACTTATTTAAA	–	0.279	–
ACAGACGAAGGAGCCGCAAAGAAGTTATTAAGGGATGAATAATCCCGCAATATATATATCTCTCACTTATTTAAA	–	0.139	–
ACAGACGAAGGAGCCGCAAAGAAGTTATTAAGGGATGAATAATCCCGCATTATAAATATCTCTCACTTATTTAAA	–	0.101	–
ACAGACGAAGGAGCCGCAAAGAAGTTATTAAGGGATGAATAATCCCGTAATATAAATATCTCTCACTTATTTAAA	–	0.682	–
ACAGACGAAGGAGCCGCAAAGAAGTTATTAAGGGATGAATAATCCCTAAAAATAAATATCTCTCACTTATTTAAA	0.213	0.423	–
ACAGACGAAGGAGCCGCAAAGAAGTTATTAAGGGATGAATAATCCCTAAACATAAATATCTCTCACTTATTTAAA	–	0.323	–
ACAGACGAAGGAGCCGCAAAGAAGTTATTAAGGGATGAATAATCCCTAAAGATAAATATCTCTCACTTATTTAAA	0.259	–	–
ACAGACGAAGGAGCCGCAAAGAAGTTATTAAGGGATGAATAATCCCTAAATACAAATATCTCTCACTTATTTAAA	–	0.0687	–
ACAGACGAAGGAGCCGCAAAGAAGTTATTAAGGGATGAATAATCCCTAAATATAAAAATCTCTCACTTATTTAAA	0.46	0.622	–
ACAGACGAAGGAGCCGCAAAGAAGTTATTAAGGGATGAATAATCCCTAAATATAAACATCTCTCACTTATTTAAA	0.509	0.57	–
ACAGACGAAGGAGCCGCAAAGAAGTTATTAAGGGATGAATAATCCCTAAATATAAAGATCTCTCACTTATTTAAA	–	0.356	–
ACAGACGAAGGAGCCGCAAAGAAGTTATTAAGGGATGAATAATCCCTAAATATAAATAACTCTCACTTATTTAAA	–	0.442	–
ACAGACGAAGGAGCCGCAAAGAAGTTATTAAGGGATGAATAATCCCTAAATATAAATATCTCTCACTATTTAAAG	–	0.705	–
ACAGACGAAGGAGCCGCAAAGAAGTTATTAAGGGATGAATAATCCCTAAATATAAATATCTCTCACTTATTTAAA	0.622	0.72	0.772
ACAGACGAAGGAGCCGCAAAGAAGTTATTAAGGGATGAATAATCCCTAAATATAAATATTTCTCACTTATTTAAA	–	0.836	–
ACAGACGAAGGAGCCGCAAAGAAGTTATTAAGGGATGAATAATCCCTAAATATACATATCTCTCACTTATTTAAA	0.498	0.465	–
ACAGACGAAGGAGCCGCAAAGAAGTTATTAAGGGATGAATAATCCCTAAATATAGATATCTCTCACTTATTTAAA	0.495	0.551	–
ACAGACGAAGGAGCCGCAAAGAAGTTATTAAGGGATGAATAATCCCTAAATATTAATATCTCTCACTTATTTAAA	0.189	–	–
ACAGACGAAGGAGCCGCAAAGAAGTTATTAAGGGATGAATAATCCCTAAATTTAAATATCTCTCACTTATTTAAA	0.162	–	–

Sequence	cleaved RNA product abundance [1]	cleaved RNA product abundance [2]	cleaved RNA product abundance [3]
ACAGACGAAGGAGCCGCAAAGAAGTTATTAAGGGATGAATAATCCCTAAGTATAAATATCTCTCACTTATTTAAA	0.255	0.502	–
ACAGACGAAGGAGCCGCAAAGAAGTTATTAAGGGATGAATAATCCCTAATTATAAATATCTCTCACTTATTTAAA	0.365	0.447	–
ACAGACGAAGGAGCCGCAAAGAAGTTATTAAGGGATGAATAATCCCTACATATAAATATCTCTCACTTATTTAAA	–	0.203	–
ACAGACGAAGGAGCCGCAAAGAAGTTATTAAGGGATGAATAATCCCTATATATAAATATCTCTCACTTATTTAAA	–	0.37	–
ACAGACGAAGGAGCCGCAAAGAAGTTATTAAGGGATGAATAATCCCTCAAAAAAAATATCTCTCACTTATTTAAA	–	0.0713	–
ACAGACGAAGGAGCCGCAAAGAAGTTATTAAGGGATGAATAATCCCTCAAAAGAAATATCTCTCACTTATTTAAA	–	0.0815	–
ACAGACGAAGGAGCCGCAAAGAAGTTATTAAGGGATGAATAATCCCTCAAAATAAAAATCTCTCACTTATTTAAA	–	0.393	–
ACAGACGAAGGAGCCGCAAAGAAGTTATTAAGGGATGAATAATCCCTCAAAATAAACATCTCTCACTTATTTAAA	–	0.316	–
ACAGACGAAGGAGCCGCAAAGAAGTTATTAAGGGATGAATAATCCCTCAAAATAAATAACTCTCACTTATTTAAA	–	0.363	–
ACAGACGAAGGAGCCGCAAAGAAGTTATTAAGGGATGAATAATCCCTCAAAATAAATAGCTCTCACTTATTTAAA	0.26	–	–
ACAGACGAAGGAGCCGCAAAGAAGTTATTAAGGGATGAATAATCCCTCAAAATAAATATCTCTCACTTATTTAAA	0.302	0.393	0.369
ACAGACGAAGGAGCCGCAAAGAAGTTATTAAGGGATGAATAATCCCTCAAAATAAATATTTCTCACTTATTTAAA	–	0.319	–
ACAGACGAAGGAGCCGCAAAGAAGTTATTAAGGGATGAATAATCCCTCAAAATAAATTTCTCTCACTTATTTAAA	–	0.285	–
ACAGACGAAGGAGCCGCAAAGAAGTTATTAAGGGATGAATAATCCCTCAAAATACATATCTCTCACTTATTTAAA	0.202	0.3	–
ACAGACGAAGGAGCCGCAAAGAAGTTATTAAGGGATGAATAATCCCTCAAAATAGATATCTCTCACTTATTTAAA	–	0.322	–
ACAGACGAAGGAGCCGCAAAGAAGTTATTAAGGGATGAATAATCCCTCAAAATATATATCTCTCACTTATTTAAA	–	0.304	–
ACAGACGAAGGAGCCGCAAAGAAGTTATTAAGGGATGAATAATCCCTCAAATATAAATATCTCTCACTTATTTAA	0.38	0.539	–
ACAGACGAAGGAGCCGCAAAGAAGTTATTAAGGGATGAATAATCCCTCAACAAAAATATCTCTCACTTATTTAAA	0.105	–	–
ACAGACGAAGGAGCCGCAAAGAAGTTATTAAGGGATGAATAATCCCTCAACATAAAAATCTCTCACTTATTTAAA	0.242	0.234	–
ACAGACGAAGGAGCCGCAAAGAAGTTATTAAGGGATGAATAATCCCTCAACATAAACATCTCTCACTTATTTAAA	–	0.215	–

Sequence	cleaved RNA product abundance [1]	cleaved RNA product abundance [2]	cleaved RNA product abundance [3]
ACAGACGAAGGAGCCGCAAAGAAGTTATTAAGGGATGAATAATCCCTCAACATAAATATCTCTCACTTATTTAAA	0.22	0.345	0.137
ACAGACGAAGGAGCCGCAAAGAAGTTATTAAGGGATGAATAATCCCTCAACATACATATCTCTCACTTATTTAAA	–	0.273	–
ACAGACGAAGGAGCCGCAAAGAAGTTATTAAGGGATGAATAATCCCTCAAGATAAATATCTCTCACTTATTTAAA	0.217	0.256	0.289
ACAGACGAAGGAGCCGCAAAGAAGTTATTAAGGGATGAATAATCCCTCAAGATAAATATTTCTCACTTATTTAAA	–	0.27	–
ACAGACGAAGGAGCCGCAAAGAAGTTATTAAGGGATGAATAATCCCTCAATAAAAATATCTCTCACTTATTTAAA	0.172	0.147	0.28
ACAGACGAAGGAGCCGCAAAGAAGTTATTAAGGGATGAATAATCCCTCAATAAAAATGTCTCTCACTTATTTAAA	–	0.0307	–
ACAGACGAAGGAGCCGCAAAGAAGTTATTAAGGGATGAATAATCCCTCAATACAAATACCTCTCACTTATTTAAA	–	0.0316	–
ACAGACGAAGGAGCCGCAAAGAAGTTATTAAGGGATGAATAATCCCTCAATACAAATATCTCTCACTTATTTAAA	0.117	0.0683	0.23
ACAGACGAAGGAGCCGCAAAGAAGTTATTAAGGGATGAATAATCCCTCAATAGAAATACCTCTCACTTATTTAAA	–	0.0433	–
ACAGACGAAGGAGCCGCAAAGAAGTTATTAAGGGATGAATAATCCCTCAATAGAAATATCTCTCACTTATTTAAA	0.164	0.111	0.165
ACAGACGAAGGAGCCGCAAAGAAGTTATTAAGGGATGAATAATCCCTCAATATAAAAATCACTCACTTATTTAAA	–	1.16	–
ACAGACGAAGGAGCCGCAAAGAAGTTATTAAGGGATGAATAATCCCTCAATATAAAAATCTCTCACTTATTTAAA	0.906	0.794	0.602
ACAGACGAAGGAGCCGCAAAGAAGTTATTAAGGGATGAATAATCCCTCAATATAAAAATGTCTCACTTATTTAAA	–	1.17	–
ACAGACGAAGGAGCCGCAAAGAAGTTATTAAGGGATGAATAATCCCTCAATATAAAAATTTCTCACTTATTTAAA	–	0.688	–
ACAGACGAAGGAGCCGCAAAGAAGTTATTAAGGGATGAATAATCCCTCAATATAAAATATCTCTCACTTATTTAA	0.806	–	–
ACAGACGAAGGAGCCGCAAAGAAGTTATTAAGGGATGAATAATCCCTCAATATAAACATCTCTCACTTATTTAAA	0.652	0.702	0.847
ACAGACGAAGGAGCCGCAAAGAAGTTATTAAGGGATGAATAATCCCTCAATATAAACATTTCTCACTTATTTAAA	0.752	–	–
ACAGACGAAGGAGCCGCAAAGAAGTTATTAAGGGATGAATAATCCCTCAATATAAACCTCTCTCACTTATTTAAA	–	0.171	–
